For the assay, the target named is T1, transferrin receptor protein 1 (Homo sapiens, UniProt P02786).
T1 construct: First, we incubated 3F3-FMA with a cell lysate overnight; endogenous in cells; host or cells: HT-1080 (ATCC CRL-7951)
In words: Antigen identification by immunoprecipitation-mass spectrometry. The format is binding. The settings on record: HT-1080 cell lysate. On the procedure: HT-1080 cells were seeded in DMEM (Corning 10-013-CM) and 10% Hi-FBS with 1% penicillin and streptomycin (PS) with 1% MEM Non-Essential Amino Acids Solution (100×) (Thermo Fisher Scientific 11140-076) 16 h prior to use. DMSO or 1 μM of RSL3 was added and incubated for 4 h. Following treatment, the medium was aspirated from each dish and cells were washed twice with PBS. Cells were lysed with 70 μl lysis buffer (RIPA buffer from ThermoFisher, cat. 89900, 1 mM EDTA, 1 mM PMSF, 1× Halt™ protease inhibitor cocktail from ThermoFisher, cat. 78430 and 1× Halt™ phosphatase inhibitor cocktail from ThermoFisher, cat. 78426). Unlysed cells and debris were pelleted for 15 min at 16,000×g at 4° C. The samples were incubated with 10 μg of 3F3 FMA overnight at 4° C. with shaking. […]
Trypsin digestion was performed overnight at 37° C. […] CID fragmentation was applied with 35% collision energy and resulting fragments were detected using the rapid scan rate in the ion trap. […]
Raw mass spectrometric data were analyzed using MaxQuant v.1.6.1.0 (Cox and Mann, 2008) (MaxQuant, RRID:SCR_014485) and employed Andromeda for database search (Cox et al., 2011) at default settings with a few modifications. […]

Here are results for one molecule from US20220412989A1, “COMPOSITIONS AND METHODS FOR DETECTING CELLS UNDERGOING FERROPTOSIS USING AN ANTIBODY” (THE TRUSTEES OF COLUMBIA UNIVERSITY IN THE CITY OF NEW YORK, priority 2020, published 2022).

T1 sequence (P02786 whole entry): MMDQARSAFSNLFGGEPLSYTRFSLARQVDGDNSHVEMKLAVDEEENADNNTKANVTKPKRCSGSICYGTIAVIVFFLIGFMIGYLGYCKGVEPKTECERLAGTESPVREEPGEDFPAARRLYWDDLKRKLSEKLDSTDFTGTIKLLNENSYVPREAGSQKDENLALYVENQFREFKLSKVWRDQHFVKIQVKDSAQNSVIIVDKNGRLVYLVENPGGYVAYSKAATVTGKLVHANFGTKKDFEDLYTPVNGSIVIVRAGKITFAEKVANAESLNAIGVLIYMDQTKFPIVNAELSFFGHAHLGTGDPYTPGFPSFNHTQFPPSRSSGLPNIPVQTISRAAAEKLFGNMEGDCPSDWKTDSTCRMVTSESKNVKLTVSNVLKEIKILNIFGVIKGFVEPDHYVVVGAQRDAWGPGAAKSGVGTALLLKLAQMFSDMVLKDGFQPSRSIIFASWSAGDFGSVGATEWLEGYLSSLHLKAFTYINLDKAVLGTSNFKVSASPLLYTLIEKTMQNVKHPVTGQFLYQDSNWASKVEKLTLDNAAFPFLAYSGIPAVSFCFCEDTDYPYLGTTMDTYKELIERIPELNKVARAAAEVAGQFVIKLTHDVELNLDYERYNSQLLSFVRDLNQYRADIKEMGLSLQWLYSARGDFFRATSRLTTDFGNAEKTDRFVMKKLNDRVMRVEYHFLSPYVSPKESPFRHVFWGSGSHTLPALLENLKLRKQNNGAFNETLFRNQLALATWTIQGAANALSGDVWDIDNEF

B1: 3F3-FMA: murine monoclonal IgG1 raised against ferroptotic membrane fractions; antigen is human transferrin receptor protein 1 (TfR1) (antibody, V domains shown)
VH: EVLLQQSGTELVRPGALVKLSCKASGFNIQDLYIHWVKQRPEQGLEWIGWIDPETDNTIYDPKFQGKASITADTSSNTAYLQLSSLTSEDTAMYYCSTGLLQWYFDVWGAGTAVTVSS
VL: DIVMTQSPSSLAMSIGQKVTMRCKSSQSLLNSYNQKNCLAWYQQKPGQSPKLLLYFVSTRESGVPDRFIGSGSGTDFTLTISSVQAEDLADYFCQQHYSTPLTFGAGTKLELK
In the case of B1, the “amino acid coverage of TfR1” value stood at 53% and the “confidence identification of transferrin receptor protein 1 as target antigen” value was found to be 63%.
